Reference: PMC9352680, “A comprehensive thermodynamic model for RNA binding by the Saccharomyces cerevisiae Pumilio protein PUF4”
Numbering of substitutions follows the chain as printed. Names and notes keep the numbering of the source.

B1: Ic_S4_P4E.1_K4.1_C4.1_H4.1_A4.1_[T5A]_[A6C]_[T7G]_F4.1_T4.1 (ssRNA)
RNA: UUUGACAACUGAUCGUUCUUUCUUGUAACGUAUUCUUUCUCGAUCAGUUGUCUUU
B2: Ic_S4_P4E.1_K4.1_C4.1_H4.1_A4.1_[T5A]_[A6C]_[T7A]_F4.1_[T8C]_[A9C]_T4.1 (ssRNA)
RNA: B1 RNA with G30A, U31C, A32C
B3: Ic_S4_P4E.1_K4.1_C4.1_H4.1_A4.1_[T5A]_[A6T]_[T7C]_F4.1_[T8G]_[A9G]_T4.1 (ssRNA)
RNA: B1 RNA with C29U, G30C, U31G, A32G
B4: Ic_S4_P4E.1_K4.1_C4.1_H4.1_A4.1_[T5A]_[T7A]_F4.1_[T8C]_[A9T]_T4.1 (ssRNA)
RNA: B1 RNA with C29A, G30A, U31C, A32U
B5: Ic_S4_P4E.1_K4.1_C4.1_H4.1_A4.1_[T5A]_[A6C]_[T7C]_F4.1_T4.1 (ssRNA)
RNA: B1 RNA with G30C
B6: Ic_S4_P4E.1_K4.1_C4.1_H4.1_A4.1_[T5A]_[A6C]_[T7C]_F4.1_[A9T]_T4.1 (ssRNA)
RNA: B1 RNA with G30C, A32U
B7: Ic_S4_P4E.1_K4.1_C4.1_H4.1_A4.1_[T5A]_[A6C]_[T7A]_F4.1_[T8G]_[A9T]_T4.1 (ssRNA)
RNA: B1 RNA with G30A, U31G, A32U
B8: Ic_S4_P4E.1_K4.1_C4.1_H4.1_A4.1_[T5A]_[A6C]_F4.1_[T8A]_[A9G]_T4.1 (ssRNA)
RNA: B1 RNA with G30U, U31A, A32G
B9: Ic_S4_P4E.1_K4.1_C4.1_H4.1_A4.1_[T5A]_[A6C]_F4.1_[T8G]_[A9T]_T4.1 (ssRNA)
RNA: B1 RNA with G30U, U31G, A32U
B10: Ic_S4_P4E.1_K4.1_C4.1_H4.1_A4.1_[T5A]_[A6C]_F4.1_[A9G]_T4.1 (ssRNA)
RNA: B1 RNA with G30U, A32G
B11: Ic_S4_P4E.1_K4.1_C4.1_H4.1_A4.1_[T5A]_[A6T]_[T7C]_F4.1_[A9G]_T4.1 (ssRNA)
RNA: B1 RNA with C29U, G30C, A32G
B12: Ic_S4_P4E.1_K4.1_C4.1_H4.1_A4.1_[T5A]_[A6C]_F4.1_[T8C]_T4.1 (ssRNA)
RNA: B1 RNA with G30U, U31C
B13: Ic_S4_P4E.1_K4.1_C4.1_H4.1_A4.1_[T5A]_[A6T]_F4.1_[T8A]_[A9T]_T4.1 (ssRNA)
RNA: B1 RNA with C29U, G30U, U31A, A32U
B14: Ic_S4_P4E.1_K4.1_C4.1_H4.1_A4.1_[T5A]_[A6C]_[T7A]_F4.1_[T8A]_[A9C]_T4.1 (ssRNA)
RNA: B1 RNA with G30A, U31A, A32C
B15: Ic_S4_P4E.1_K4.1_C4.1_H4.1_A4.1_[T5A]_[T7C]_F4.1_[T8C]_[A9C]_T4.1 (ssRNA)
RNA: B1 RNA with C29A, G30C, U31C, A32C
B16: Ic_S4_P4E.1_K4.1_C4.1_H4.1_A4.1_[T5A]_[A6T]_[T7A]_F4.1_[A9G]_T4.1 (ssRNA)
RNA: B1 RNA with C29U, G30A, A32G
B17: Ic_S4_P4E.1_K4.1_C4.1_H4.1_A4.1_[T5A]_[A6C]_[T7C]_F4.1_[T8G]_[A9C]_T4.1 (ssRNA)
RNA: B1 RNA with G30C, U31G, A32C
B18: Ic_S4_P4E.1_K4.1_C4.1_H4.1_A4.1_[T5A]_[A6T]_[T7A]_F4.1_[A9C]_T4.1 (ssRNA)
RNA: B1 RNA with C29U, G30A, A32C
B19: Ic_S4_P4E.1_K4.1_C4.1_H4.1_A4.1_[T5A]_[A6T]_[T7C]_F4.1_[T8A]_[A9G]_T4.1 (ssRNA)
RNA: B1 RNA with C29U, G30C, U31A, A32G
B20: Ic_S4_P4E.1_K4.1_C4.1_H4.1_A4.1_[T5A]_[A6C]_F4.1_[T8A]_[A9T]_T4.1 (ssRNA)
RNA: B1 RNA with G30U, U31A, A32U
B21: Ic_S4_P4E.1_K4.1_C4.1_H4.1_A4.1_[T5A]_[A6T]_[T7A]_F4.1_[T8C]_T4.1 (ssRNA)
RNA: B1 RNA with C29U, G30A, U31C
B22: Ic_S4_P4E.1_K4.1_C4.1_H4.1_A4.1_[T5A]_[A6T]_[T7A]_F4.1_[T8C]_[A9T]_T4.1 (ssRNA)
RNA: B1 RNA with C29U, G30A, U31C, A32U
B23: Ic_S4_P4E.1_K4.1_C4.1_H4.1_A4.1_[T5A]_[A6C]_[T7A]_F4.1_[T8G]_[A9C]_T4.1 (ssRNA)
RNA: B1 RNA with G30A, U31G, A32C
B24: Ic_S4_P4E.1_K4.1_C4.1_H4.1_A4.1_[T5A]_[A6C]_F4.1_[T8C]_[A9G]_T4.1 (ssRNA)
RNA: B1 RNA with G30U, U31C, A32G
B25: Ic_S4_P4E.1_K4.1_C4.1_H4.1_A4.1_[T5A]_[A6T]_F4.1_[T8G]_[A9C]_T4.1 (ssRNA)
RNA: B1 RNA with C29U, G30U, U31G, A32C
B26: Ic_S4_P4E.1_K4.1_C4.1_H4.1_A4.1_[T5A]_[A6C]_F4.1_[T8A]_[A9C]_T4.1 (ssRNA)
RNA: B1 RNA with G30U, U31A, A32C
B27: Ic_S4_P4E.1_K4.1_C4.1_H4.1_A4.1_[T5A]_[A6T]_[T7C]_F4.1_[T8A]_[A9C]_T4.1 (ssRNA)
RNA: B1 RNA with C29U, G30C, U31A, A32C
B28: Ic_S4_P4E.1_K4.1_C4.1_H4.1_A4.1_[T5A]_[A6T]_F4.1_T4.1 (ssRNA)
RNA: B1 RNA with C29U, G30U
B29: Ic_S4_P4E.1_K4.1_C4.1_H4.1_A4.1_[T5A]_[A6C]_[T7C]_F4.1_[A9G]_T4.1 (ssRNA)
RNA: B1 RNA with G30C, A32G
B30: Ic_S4_P4E.1_K4.1_C4.1_H4.1_A4.1_[T5A]_[A6C]_[T7A]_F4.1_T4.1 (ssRNA)
RNA: B1 RNA with G30A
B31: Ic_S4_P4E.1_K4.1_C4.1_H4.1_A4.1_[T5A]_[A6C]_[T7A]_F4.1_[A9C]_T4.1 (ssRNA)
RNA: B1 RNA with G30A, A32C
B32: Ic_S4_P4E.1_K4.1_C4.1_H4.1_A4.1_[T5A]_[A6T]_F4.1_[T8C]_T4.1 (ssRNA)
RNA: B1 RNA with C29U, G30U, U31C
B33: Ic_S4_P4E.1_K4.1_C4.1_H4.1_A4.1_[T5A]_[T7C]_F4.1_[T8C]_[A9T]_T4.1 (ssRNA)
RNA: B1 RNA with C29A, G30C, U31C, A32U
B34: Ic_S4_P4E.1_K4.1_C4.1_H4.1_A4.1_[T5A]_[A6T]_[T7G]_F4.1_[T8C]_[A9C]_T4.1 (ssRNA)
RNA: B1 RNA with C29U, U31C, A32C
B35: Ic_S4_P4E.1_K4.1_C4.1_H4.1_A4.1_[T5A]_[A6T]_[T7C]_F4.1_[A9T]_T4.1 (ssRNA)
RNA: B1 RNA with C29U, G30C, A32U
B36: Ic_S4_P4E.1_K4.1_C4.1_H4.1_A4.1_[T5A]_[T7C]_F4.1_[A9T]_T4.1 (ssRNA)
RNA: B1 RNA with C29A, G30C, A32U
B37: Ic_S4_P4E.1_K4.1_C4.1_H4.1_A4.1_[T5A]_[A6T]_[T7A]_F4.1_[T8A]_T4.1 (ssRNA)
RNA: B1 RNA with C29U, G30A, U31A
B38: Ic_S4_P4E.1_K4.1_C4.1_H4.1_A4.1_[T5A]_[T7C]_F4.1_[A9C]_T4.1 (ssRNA)
RNA: B1 RNA with C29A, G30C, A32C
B39: Ic_S4_P4E.1_K4.1_C4.1_H4.1_A4.1_[T5A]_[A6C]_F4.1_[T8C]_[A9T]_T4.1 (ssRNA)
RNA: B1 RNA with G30U, U31C, A32U
B40: Ic_S4_P4E.1_K4.1_C4.1_H4.1_A4.1_[T5A]_[A6T]_[T7G]_F4.1_[T8C]_[A9T]_T4.1 (ssRNA)
RNA: B1 RNA with C29U, U31C, A32U
B41: Ic_S4_P4E.1_K4.1_C4.1_H4.1_A4.1_[T5A]_[A6C]_[T7C]_F4.1_[T8C]_[A9T]_T4.1 (ssRNA)
RNA: B1 RNA with G30C, U31C, A32U
B42: Ic_S4_P4E.1_K4.1_C4.1_H4.1_A4.1_[T5A]_[T7A]_F4.1_[T8A]_T4.1 (ssRNA)
RNA: B1 RNA with C29A, G30A, U31A
B43: Ic_S4_P4E.1_K4.1_C4.1_H4.1_A4.1_[T5A]_[A6C]_F4.1_T4.1 (ssRNA)
RNA: B1 RNA with G30U
B44: Ic_S4_P4E.1_K4.1_C4.1_H4.1_A4.1_[T5A]_[A6T]_[T7A]_F4.1_T4.1 (ssRNA)
RNA: B1 RNA with C29U, G30A
B45: Ic_S4_P4E.1_K4.1_C4.1_H4.1_A4.1_[T5A]_[T7C]_F4.1_[T8A]_[A9T]_T4.1 (ssRNA)
RNA: B1 RNA with C29A, G30C, U31A, A32U
B46: Ic_S4_P4E.1_K4.1_C4.1_H4.1_A4.1_[T5A]_[A6T]_F4.1_[T8A]_[A9G]_T4.1 (ssRNA)
RNA: B1 RNA with C29U, G30U, U31A, A32G
B47: Ic_S4_P4E.1_K4.1_C4.1_H4.1_A4.1_[T5A]_[T7C]_F4.1_[T8C]_[A9G]_T4.1 (ssRNA)
RNA: B1 RNA with C29A, G30C, U31C, A32G
B48: Ic_S4_P4E.1_K4.1_C4.1_H4.1_A4.1_[T5A]_[A6T]_[T7A]_F4.1_[T8A]_[A9C]_T4.1 (ssRNA)
RNA: B1 RNA with C29U, G30A, U31A, A32C
B49: Ic_S4_P4E.1_K4.1_C4.1_H4.1_A4.1_[T5A]_[A6T]_[T7C]_F4.1_[T8C]_T4.1 (ssRNA)
RNA: B1 RNA with C29U, G30C, U31C
B50: Ic_S4_P4E.1_K4.1_C4.1_H4.1_A4.1_[T5A]_[A6T]_F4.1_[A9C]_T4.1 (ssRNA)
RNA: B1 RNA with C29U, G30U, A32C
B51: Ic_S4_P4E.1_K4.1_C4.1_H4.1_A4.1_[T5A]_[T7C]_F4.1_[T8G]_[A9T]_T4.1 (ssRNA)
RNA: B1 RNA with C29A, G30C, U31G, A32U

target: T1, PUF4 RNA-binding domain (Saccharomyces cerevisiae, UniProt P25339 537-888); assay: Mg; RNA-MaP; 20 mM Na-HEPES pH 7.4, 30 mM KOAc, 0.75 mM MgCl2, 0.1% Tween-20, 5% glycerol, 0.1 mg/mL BSA, 2 mM DTT; 25 C; 0.0125-409.6 nM protein; conditions: tags: N-His6-TEV cleaved; C-SNAP kept, Cy3B-labelled; label: tethered on chip by stalled RNA polymerase
T1 sequence: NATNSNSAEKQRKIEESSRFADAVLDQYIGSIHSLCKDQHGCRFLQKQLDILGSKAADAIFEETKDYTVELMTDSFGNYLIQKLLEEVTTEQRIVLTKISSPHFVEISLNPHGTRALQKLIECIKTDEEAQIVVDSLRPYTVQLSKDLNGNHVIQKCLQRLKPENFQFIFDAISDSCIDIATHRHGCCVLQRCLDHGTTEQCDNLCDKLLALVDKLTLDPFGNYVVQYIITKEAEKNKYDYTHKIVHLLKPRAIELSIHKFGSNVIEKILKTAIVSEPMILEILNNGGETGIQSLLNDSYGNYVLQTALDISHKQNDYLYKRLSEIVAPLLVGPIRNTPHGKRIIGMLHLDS

Binder	Kd [nM]
UCUCUUUGUAUCUAAUCUCUU (ssRNA) [Ib_S1_P4E.1_K4.1_C4.1_H4.1_A4.1_[A6C]_F4.1_[T8A]_T4.1]	49.3
B1	14.5
B2	215
B3	1920
B4	258
B5	5.74
B6	31.1
B7	604
B8	653
B9	95.2
B10	84.8
B11	41.6
B12	281
B13	56.2
B14	1050
B15	455
B16	21.6
B17	927
B18	46.2
B19	1080

Binder	Kd [nM]
B20	49.4
B21	555
B22	116
B23	879
B24	577
B25	421
B26	287
B27	1050
B28	2.38
B29	44.1
B30	1.34
B31	22.5
B32	205
B33	175
B34	1200
B35	34.8
B36	51.4
B37	144
B38	76.1
B39	72

Binder	Kd [nM]
B40	518
B41	225
B42	202
B43	3.93
B44	1.95
B45	211
B46	467
B47	942
B48	314
B49	464
B50	64.3
B51	506
UCUCUUUGUAUUUCAUCUCUU (ssRNA) [Ib_S1_P4E.1_K4.1_C4.1_H4.1_A4.1_[A6T]_F4.1_[T8C]_T4.1]	69.6
UCUCUUUGUAUAUGUCUCUU (ssRNA) [Ia_S1_P3E.1_K3.1_C3.1_H3.1_A3.1_F3.1_[A8G]_T3.1]	17
UCUCUUUGUAUCUCAUCUCUU (ssRNA) [Ib_S1_P4E.1_K4.1_C4.1_H4.1_A4.1_[A6C]_F4.1_[T8C]_T4.1]	34.6
UCUCUUUGUAUGUAAUCUCUU (ssRNA) [Ib_S1_P4E.1_K4.1_C4.1_H4.1_A4.1_[A6G]_F4.1_[T8A]_T4.1]	94.6
UCUCUUUGUAUUUAAUCUCUU (ssRNA) [Ic_S1_P4E.1_K4.1_C4.1_H4.1_A4.1_[A6T]_F4.1_[T8A]_T4.1]	66.5
UCUCUUUGUCUAUUAUCUCUU (ssRNA) [Ia_S1_P4E.1_K4.1_C4.1_H4.1_[A4C]_A4.1_F4.1_T4.1]	12.7
